Measurements taken from EP4703380A1, “INTEGRIN-TARGETING ANTIBODIES AND USE THEREOF” (NIO BIOPHARMACEUTICALS. INC., priority 2023, dated 2024).
“And” between values parts separate entries of the source, which are not always exact repeats. Equal values may be shown once.

Assays:
[1] = Real-time thermal stability (SYPRO Orange); type: physicochemical; details: 2 µM sample, 10.0°C to 95°C
Procedure: The method and principle of the experiment were as follows. As the temperature increases, the folded protein denatures, exposing hydrophobic regions, which bind to the SYPRO Orange detection dye, resulting in fluorescence. The point at 1/2 RFUmax is designated as the melting point (Tm). 22.5 µL of the assay sample and 2.5 µL of 50x SYPRO stock solution were added to a 96-well PCR plate (VOLO Semi-Skirted PCR Plate) so that the final concentration of the sample used in the experiment was 2 µM, and the fluorescence was measured using Quantstudio Real-Time PCR (Thermo Fisher scientific) while increasing the temperature by 0.5°C per 10 s from 10.0°C to 95°C. Each sample was tested three times. The fluorescence value of the antibody buffer was set as the background and subtracted, and the value with the greatest slope in the […] of the fluorescence value (dTRFU) was analyzed as the Tm of the corresponding protein.

BT20 = experiment: AlamarBlue cell growth inhibition, BT20; type: cell-based; details: TNBC, BT20, 4 days
Procedure: (§1) First, an appropriate number of cells (3x10^3 to 1x10^4 cells) for each cancer cell line were dispensed into each well of a 96-well plate and cultured for 24 hours at 37°C, 5% CO2, and then the medium was replaced with fresh growth medium. Then, sequentially diluted antibody-drug conjugates were added to each well, and the cells were cultured for 4 days under 37°C, 5% CO2 conditions, and then treated with AlamarBlue (Invitrogen). The fluorescence values were measured at Ex530 and Em590 every 2, 4, and 6 hours (PerkinElmer Victor x4). The obtained fluorescence values were analyzed with Prism4 (GraphPad) to determine the EC50 value. Each experiment was repeated three times.

MDA-MB-468 = experiment: AlamarBlue cell growth inhibition, MDA-MB-468; type: cell-based; details: TNBC, MDA-MB-468, 4 days
Procedure: as §1

MDA-MB-231 = experiment: AlamarBlue cell growth inhibition, MDA-MB-231; type: cell-based; details: TNBC, MDA-MB-231, 4 days
Procedure: as §1

MDA-MB-231 ITGA KO = experiment: AlamarBlue cell growth inhibition, ITGA3 knockout negative control line; type: cell-based; details: breast cancer cell line with ITGA3 subunit knocked out
Procedure: MDA-MB-231 cells with ITGA3 gene knockout were generated as follows. sgRNAs targeting exon 17 ([…]) of the ITGA3 gene were subcloned using the CRISPR-Cas9-2A-Puro V2.0 (Addgene) system. MDA-MB-231 cells were transfected with CRISPR-Cas9/sgRNA and cultured at 37°C, 5% CO2 for 72 hours. Afterwards, puromycin, the selection marker for the CRISPR-Cas9 vector, was added at a concentration of 250 ng/mL and selected for 18 days. Then, the target protein knockout efficiency was measured using flow cytometry (FACS calibur, FACS Aria, BD Biosciences), and knockout cells were isolated. MDA-MB-231 cells with ITGA3 knockout, i.e., MDA-MB-231/ITGA3 KO cell lines, were analyzed by flow cytometry using 3 µg/mL PS4 antibody and anti-human Fc-gamma specific Alexa Fluor-647 (1:800 dilution, Jackson ImmunoResearch Laboratories Inc.). In addition, MDA-MB-231/ITGA3 KO cell lysate (30 µg) was separated by SDS-PAGE and analyzed by Western blot using anti-ITGA3 (Antibodies-online) and anti-mouse Fc-gamma specific-HRP. Sample loading was compared using anti-beta-actin.
First, an appropriate number of cells (3x10^3 to 1x10^4 cells) for each cancer cell line were dispensed into each well of a 96-well plate and cultured for 24 hours at 37°C, 5% CO2, and then the medium was replaced with fresh growth medium. […] The fluorescence values were measured at Ex530 and Em590 every 2, 4, and 6 hours (PerkinElmer Victor x4). […]

MDA-MB-453 = experiment: AlamarBlue cell growth inhibition, MDA-MB-453; type: cell-based; details: TNBC, MDA-MB-453, 4 days
Procedure: as §1

Panc-1 [2] = experiment: AlamarBlue cell growth inhibition, Panc-1; type: cell-based; details: Pancreatic, Panc-1, 4 days
Procedure: as §1

Aspc-1 = experiment: AlamarBlue cell growth inhibition, Aspc-1; type: cell-based; details: Pancreatic, Aspc-1, 4 days
Procedure: as §1

MKN45 = experiment: AlamarBlue cell growth inhibition, MKN45; type: cell-based; details: Stomach, MKN45, 4 days
Procedure: as §1

A549 = experiment: AlamarBlue cell growth inhibition, A549; type: cell-based; details: Lung, A549, 4 days
Procedure: as §1

UMUC-3 = experiment: AlamarBlue cell growth inhibition, UMUC-3; type: cell-based; details: bladder, UMUC-3, 4 days
Procedure: as §1

CoCaB1 = experiment: AlamarBlue cell growth inhibition, CoCaB1; type: cell-based; details: bladder, CoCaB1, 4 days
Procedure: as §1

SW780 = experiment: AlamarBlue cell growth inhibition, SW780; type: cell-based; details: bladder, SW780, 4 days
Procedure: as §1

SCaBER = experiment: AlamarBlue cell growth inhibition, SCaBER; type: cell-based; details: bladder, 4 days
Procedure: as §1

MDA-MB-231 cells = experiment: Triple-negative breast cancer xenograft efficacy; type: in vivo, mice; details: MDA-MB-231 xenograft
Procedure: Triple-negative breast cancer (TNBC) MDA-MB-231 cells (2x10^6 cells) were mixed with Matrigel at a 1:1 (v/v) ratio and injected subcutaneously into BALB/c nude or NOD/SCID mice (Nara Bio). When the tumor volume reached 100 mm^3, the PS4-vcMMAE antibody-drug conjugate was administered intraperitoneally at 5 mg/kg or 10 mg/kg once every 5 days for a total of 5 times. 2-3 mice were used in each group. All animal experiments were conducted in accordance with protocols approved by the Institutional Animal Care and Use Committee (IACUC) of Kangwon National University (KW-210728-3).

PANC-1 [3] = experiment: Pancreatic cancer xenograft efficacy; type: in vivo, mice; details: PANC-1 xenograft, NOD/SCID
Procedure: PANC-1 (3 × 10^6) cancer cells were subcutaneously injected into NOD/SCID (female 5-week-old) mice. When the tumor volume reached […], the PS4-vcMMAE conjugate was intraperitoneally injected at 5 mg/kg or 10 mg/kg once every 5 days for a total of 3 times. The control group was treated with PBS, and the efficacy was evaluated with 3-4 mice per group. After the experiment, the tumors were excised, and the size of the tumor tissues in each experimental group was compared. All animal experiments were performed in accordance with the protocol approved by the Institutional Animal Care and Use Committee (IACUC) of Kangwon National University (KW-210728-3).

B1: PS4-vcMMAE: PS4 WT maxibody conjugated with vcMMAE (monomethyl auristatin E); average DAR 4.09 (conjugate)
VH: QVQLVQSGGGLVNPGGSLRLSCAASGFPFSDHYMSWIRQAPGKGLEWVSYISNRGYTIHYADFVKGRFTISRDNAENTLYLQMNSLRAEDTAVYYCARDRGTIDAFDLWGQGTMVTVSS
VL: QSALTQPASVSGSPGQSITIPCSGTSDDIGRYNYVSWYQQHPGKAPKLLIYDVTRRSSGVSSHFSGSKSGSTASLIISGLQADDEADYFCSSFTNNRTVVFGGGTKLTVL
modifications: left off: things letters cannot carry; another chain or arm of the molecule; a dimerising Fc or GST; small tags and cut ends
For B1, the Tm [1] was 64.67±0.24 °C, the IC50 (BT20) was 134 ± 43.4 nM and the “Maximum (% inhibition)” value (BT20) was 79.6±11.3%. For the same molecule, the “Maximum (% inhibition)” value (MDA-MB-468) was 89.88±2.5%, the IC50 (MDA-MB-231) was 0.77 ± 0.63 nM and the “Maximum (% inhibition)” value (MDA-MB-231) was 77.97±2.03%. For the same molecule, the anticancer efficacy (MDA-MB-231 ITGA KO) was “no anticancer efficacy was observed”, the IC50 (MDA-MB-453) was 9.79 nM and 18.8 nM and the “Maximum (% inhibition)” value (MDA-MB-453) was 96.2±0.36% and 87.9±0.61%. For the same molecule, the IC50 (Panc-1 [2]) was 2.7 ± 1.21 nM, the “Maximum (% inhibition)” value (Panc-1 [2]) was 73.78±2.18% and the “Maximum (% inhibition)” value (Aspc-1) was 51.78±25.44%. For the same molecule, the IC50 (MKN45) was 14.1 ± 4.52 nM, the “Maximum (% inhibition)” value (MKN45) was 55.65±6.45% and the IC50 (A549) was 5.22 ± 2.17 nM. The “Maximum (% inhibition)” value (A549) was 77.32±1.02%, the IC50 (UMUC-3) was 2.1 ± 1.2 nM and the “Maximum (% inhibition)” value (UMUC-3) was 90.75±4.02%. For the same molecule, the IC50 (CoCaB1) was 2.21 ± 1.4 nM, the “Maximum (% inhibition)” value (CoCaB1) was 95.48±2.44% and the IC50 (SW780) was 1.78 ± 1.05 nM. For the same molecule, the “Maximum (% inhibition)” value (SW780) was 90.43±2.32%, the IC50 (SCaBER) was 1.88 ± 0.79 nM and the “Maximum (% inhibition)” value (SCaBER) was 89.71±0.61%. For the same molecule, the “size and weight of the extracted tumor tissue reduced” value (MDA-MB-231 cells; BALB/c nude or NOD/SCID mice, intraperitoneally 5 mg/kg or 10 mg/kg once every 5 days, 5 times, vs control group) was “approximately 55%”, the “tumor size compared to the time of drug administration” value (MDA-MB-231 cells; NOD/SCID, 10 mg/kg) was “no significant difference” and the tumor growth (MDA-MB-231 cells; intraperitoneally 5 mg/kg or 10 mg/kg once every 5 days, 5 times, vs control group) was “inhibited in a PS4-MMAE dose-dependent manner”. For the same molecule, the tumor size reduced (PANC-1 [3]; 10 mg/kg) was “at least 60%” and the tumor growth (PANC-1 [3]; intraperitoneally 5 mg/kg or 10 mg/kg once every 5 days, 3 times, vs control group (PBS)) was “inhibited in a PS4-MMAE dose-dependent manner”.
